# Values joined by “and” are separate entries in the source; they are usually repeats but may differ in a detail not shown here. Equal values may be shown once.
# Assays:
# E. coli DH5α = experiment: Growth of E. coli DH5α strains in the presence of m-fluoro-D,L-tyrosine (OD600); format: cell-based, Escherichia coli
# Procedure: The growth in E. coli DH5α strains harboring eight different plasmids are presented: −, pZE21::tyr^WT; +, pZE21::tyrA^fbr-5; ▪, pZE21::tyrA^fbr-7; ▴, pZE21::tyrA^fbr-10; ♦, pZE21::tyrA^fbr-13; ▾, pZE21::tyrA^fbr-15; ? , pZE21::tyrA^fbr-18; ●, pZE21::tyrA^fbr-20. […] E. coli cells were cultivated in MOPS-buffered minimal medium containing m-fluoro-D,L-tyrosine. After incubation at 37° C. at 225 rpm on a rotary shaker for 20 h, the optical density at 600 nm (OD600) was measured.
# Nucleotide analogue mutagenesis was carried out in the presence of 2 and 20 μM […] (8-oxo-dGTP) and 6-(2-deoxy-β-D-ribofuranosyl)-3,4-dihydro-8H-pyrimido-[4,5-c][1,2]oxazin-7-one (dPTP) (Zaccolo, M., D. et al. 1996, J. Mol. Biol. 255: 589-603). Using the plasmid pZE21::tyrA^WT as template, 10, 20 and 30 amplification cycles with the primers mentioned above were performed. The 1.1 kbp PCR products were gel-purified, and the mutated tyrA genes were amplified in a second PCR reaction under regular conditions. Subsequently, the gel-purified DNA fragments were pooled, digested with KpnI and MluI, ligated into pZE21-MCS1, and transformed to highly competent E. coli DH5α cells (Invitrogen). Putative tyrA^fbr mutants were selected on minimal medium agar plates with 20 μg/ml kanamycin and 2 mM m-flouro-D,L-tyrosine.
# Mutants of the tyrA gene from E. coli K12 were generated by error-prone PCR and cloned into pZE21-MCS1. […] From 621 obtained tyrA^fbr mutants, seven mutants were chosen for detailed analyses.
# [1] = system: chorismate mutase (CM) activity of TyrA (CM/PDH) protein; experiment: Chorismate mutase (CM) activity with purified TyrA proteins; format: biochemical, Escherichia coli K12
# Procedure: (§1) For high expression levels of the tyrA^fbr genes, the respective pET30::tyrA^fbr plasmids were transformed to E. coli BL21 (DE3) competent cells (Novagen). The cells were cultivated in LB medium plus 20 μg/ml kanamycin and 1 mM isopropyl-β-D-thiogalactoside (IPTG). After reaching an OD600 of ˜1, the cells were collected by centrifugation, resuspended in binding buffer (20 mM Tris/HCl, 0.5 M NaCl, 5 mM imidazole, pH 7.9), and disrupted by sonication with a Branson Sonifier 450. The cell extract was centrifugated at 10,000×g for 15 min, and the supernatant was filtered through a 0.45 μm syringe filter (PALL Gelman Laboratory). The native His6-tagged TyrA protein was purified by pre-charged His-Bind column chromatography according to the manufacturer's protocol (Novagen). The eluated protein solution was desalted by Econo-Paco®10DG columns (Biorad) and concentrated by Centriprep®YM10 centrifugal ultrafiltration devices (Millipore). Expression and purification steps were controlled by SDS-PAGE (Laemmli, U. K. 1970. Nature 227: 680-685). […]
# CM activities were determined spectrophotometrically based on the formation of phenylpyruvate by treatment with HCl (Davidson, B. E., and G. S. Hudson. 1987. Methods Enzymol. 142: 440-450). […] The samples were alkalized with 1 ml of 2.5 M NaOH, and the absorbance was measured at 320 nm according to a blank sample without enzyme. […]
# [2] = biological target: prephenate dehydrogenase (PDH) activity of TyrA (CM/PDH) protein (Escherichia coli, UniProt P07023); experiment: PDH activity measurement with purified TyrA proteins (NADH formation, 340 nm); format: biochemical, Escherichia coli K12; details: 20 μM tyrosine, purified protein (FIG. 2)
# Procedure: as §1
# (§2) PDH activities of purified TyrA proteins were determined spectrophotometrically according to NADH formation (Davidson, B. E., and G. S. Hudson. 1987. Methods Enzymol. 142: 440-450). […] The reaction was started by addition of approximately 0.1 μg of enzyme which corresponded to 5-20 μl of enzyme solution, and the absorbance at 340 nm was followed for 2 min. […]
# [3] = system: prephenate dehydrogenase (PDH) activity of TyrA (CM/PDH) protein; experiment: as above; format: biochemical, Escherichia coli K12; details: purified His6-tagged TyrA protein, absence of tyrosine
# Procedure: as §1, §2
# prephenate dehydrogenase (PDH) activity of TyrA (CM/PDH) protein (Escherichia coli, UniProt P07023), sequence (P07023 whole entry): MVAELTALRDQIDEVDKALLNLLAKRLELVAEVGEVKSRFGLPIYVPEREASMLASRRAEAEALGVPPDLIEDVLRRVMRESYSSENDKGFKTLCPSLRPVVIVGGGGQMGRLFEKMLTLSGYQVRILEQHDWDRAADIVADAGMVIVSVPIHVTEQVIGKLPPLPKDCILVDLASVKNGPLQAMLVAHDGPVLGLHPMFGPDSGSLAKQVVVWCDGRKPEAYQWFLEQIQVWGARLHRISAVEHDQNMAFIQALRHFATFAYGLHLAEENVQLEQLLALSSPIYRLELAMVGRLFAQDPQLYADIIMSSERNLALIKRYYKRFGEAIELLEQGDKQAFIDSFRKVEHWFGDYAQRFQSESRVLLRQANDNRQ
compound,measurement,setting,value
"NC(Cc1ccc(O)c(F)c1)C(=O)O (racemic) [m-fluoro-D,L-tyrosine]","concentration of m-fluoro-D,L-tyrosine inhibiting growth",E. coli DH5α; E. coli DH5α without plasmid,≥ 0.1 mM
same,effect on growth of E. coli DH5α harboring plasmid pZE21::tyrA^WT,"E. coli DH5α; selection at ≧2 mM m-fluoro-D,L-tyrosine",inhibits growth
N[C@@H](Cc1ccc(O)cc1)C(=O)O [L-tyrosine],"effect of L-tyrosine on growth inhibited by m-fluoro-D,L-tyrosine","E. coli DH5α; E. coli DH5α without plasmid, equimolar amounts of L-tyrosine",restored growth
"TyrA^WT: wild-type chorismate mutase/prephenate dehydrogenase (T-protein) of E. coli K12, His6-tagged, purified","CM activity, 100 μM Tyrosine",[1]; 100 μM tyrosine in the presence of 100 μM NAD+,1.23 U/mg
same,"CM activity, 0 μM Tyrosine",[1]; absence of tyrosine,1.32 U/mg
same,"specific PDH activity in the presence of tyrosine, relative to activity in the absence of tyrosine",[2],less than 10%
same,"PDH activity, 0 μM Tyrosine",[3],29.8 U/mg and 29.80 U/mg
